Blank lines part the entries; values can stand above or below the molecule they belong to.
Key:
[1] = background, literature or label; cited from earlier work
plasma kallikrein = plasma kallikrein (Homo sapiens, UniProt P03952); test: Inhibition of enzyme activity of pre-activated plasma (compound added after DXS); assay type: biochemical; conditions: added 3.5 minutes post DXS; compound 300, 1000, 3000 nM; C1-INH 3000 nM
Protocol: The ability of the compound to inhibit the enzyme activity of pre-activated plasma was assessed by addition of the compound after DXS stimulation. Aliquots of plasma (20 μL) were mixed with a 2.5 μL solution containing […] fluorogenic substrate (H-DPro-Phe-Arg-AFC) and a 2.5 μL solution of dextran sulphate (DXS; 100 μg/mL) which acted as an activator of the plasma kallikrein-kinin pathway. Enzyme activity was immediately measured by monitoring the accumulation of fluorescence liberated from the substrate by substrate cleavage over 16 minutes. At 3.5 minutes post DXS addition 5 μl of inhibitors or water control are were added into each well. The compound was tested at concentrations of 300, 1000 and 3000 nM. C1-INH at a concentration of 3000 nM and vehicle controls were also included.

[2] = phase 1 studies, repeat dosing; cited from earlier work

Chain of plasma kallikrein (P03952 391-638 limits assumed): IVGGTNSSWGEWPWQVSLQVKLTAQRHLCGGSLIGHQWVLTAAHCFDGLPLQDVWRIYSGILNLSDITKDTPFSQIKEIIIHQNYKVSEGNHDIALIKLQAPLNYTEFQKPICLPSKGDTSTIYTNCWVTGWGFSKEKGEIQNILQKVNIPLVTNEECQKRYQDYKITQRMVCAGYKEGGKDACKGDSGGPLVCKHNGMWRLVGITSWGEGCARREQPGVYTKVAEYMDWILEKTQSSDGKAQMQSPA
Chain of plasma kallikrein (P03952 20-390 partner limits assumed): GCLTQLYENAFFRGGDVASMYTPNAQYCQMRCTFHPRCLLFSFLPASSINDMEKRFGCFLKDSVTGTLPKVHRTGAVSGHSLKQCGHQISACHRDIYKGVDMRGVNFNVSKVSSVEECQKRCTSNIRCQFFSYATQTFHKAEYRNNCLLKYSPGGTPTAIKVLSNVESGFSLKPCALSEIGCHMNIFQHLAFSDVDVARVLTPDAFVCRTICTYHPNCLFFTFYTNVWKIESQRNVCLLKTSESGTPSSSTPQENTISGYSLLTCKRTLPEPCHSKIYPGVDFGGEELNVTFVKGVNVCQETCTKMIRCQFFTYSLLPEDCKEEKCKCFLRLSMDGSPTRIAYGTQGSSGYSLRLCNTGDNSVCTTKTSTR

Molecule: Ecallantide
- reported adverse reactions [1]: risk of anaphylactic reactions

- inhibition of enzyme activity after activation of plasma (plasma kallikrein): slower action
Molecule: C1-INH: C1 inhibitor (C1-INH, Sigma Cat #E0518), therapeutic benchmark for HAE [Compound C1-INH]

Molecule: COCc1nn(Cc2ccc(Cn3cc(F)ccc3=O)cc2)cc1C(=O)NCc1nccc(OC)c1F [KVD824, 1-({4-[(5-fluoro-2-oxopyridin-1-yl)methyl]phenyl}methyl)-N-[(3-fluoro-4-methoxypyridin-2-yl)methyl]-3-(methoxymethyl)pyrazole-4-carboxamide]
- pharmacokinetic profile [2]: consistent pharmacokinetic profile over repeat dosing

Molecule: N#Cc1cccc([C@@H](NCC2CC2)c2ccc(F)c(NC(=O)c3cc(C(F)(F)F)nn3-c3cccc(CN)c3)c2)c1 [Berotralstat]
- reported adverse reactions [1]: higher doses were associated with more gastrointestinal adverse effects

B1: lanadelumab: recombinant fully human IgG1 kappa light chain monoclonal antibody, active substance of Takhzyro® (antibody, chains of the INN, looked up, V domains shown)
VH: EVQLLESGGGLVQPGGSLRLSCAASGFTFSHYIMMWVRQAPGKGLEWVSGIYSSGGITVYADSVKGRFTISRDNSKNTLYLQMNSLRAEDTAVYYCAYRRIGVPRRDEFDIWGQGTMVTVSS
VL: DIQMTQSPSTLSASVGDRVTITCRASQSISSWLAWYQQKPGKAPKLLIYKASTLESGVPSRFSGSGSGTEFTLTISSLQPDDFATYYCQQYNTYWTFGQGTKVEIK
- reported adverse reactions [1]: hypersensitivity, injection site pain, injection site erythema, and injection site bruising

From patent US20240122909A1, “TREATMENTS OF HEREDITARY ANGIOEDEMA” (KALVISTA PHARMACEUTICALS LIMITED, priority 2021, published 2024)
